This note sets out measurements from article PMC8204385 (Biophysical Journal, 2021).

B1: Human SHP-1 with an N-terminal 6x His tag (enzyme)
chain: not shown
B2: SLAM peptide (cytoplasmic tail of SLAM, 77 aa, singly phosphorylated) (peptide)
peptide: QLRRRGKTNHYQTTVEKKSLTIYAQVQKPGPLQKKLDSFPAQDPCTTIYVAATEPVPESVQETNSITVYASVTLPES
modifications: biotin on the N-terminus; phosphotyrosine in the ITSM (position 327 in the native sequence)
notes: cytoplasmic tail of SLAM, 77 aa; only the last tyrosine (327) is phosphorylated; source: synthetic peptide (Peptide Protein Research)

Test [1] addresses B2. Description: cell-based or functional assay.
Test [2] deals with B1. The test is described as follows: SPR; biotinylated peptide on streptavidin-coupled CM5 chip (25-100 RU), SHP-1 injected 45 s at 10 uL/min; Biacore T200; 37°C; 10 mM HEPES pH 7.4, 150 mM NaCl, 3 mM EDTA, 0.05% Tween 20, 1 mM dithiothreitol; constants from the fit of the extended MPDPDE model. The settings on record: both partners purified.

On to B1, for which the “ratio kcat(tethered)/kcat(solution) from the SPR assay (allosteric activation of SHP-1)” value in test [1] turned out to be 6.2 fold.

A word on the Kd: it is the constant that tells how readily two partners part at equilibrium. Low values mean a tighter complex, high ones a looser complex. As a reminder, the koff is the rate constant with which the complex falls apart. Read a low koff as slow dissociation. Usually kon stands for the rate constant with which the complex forms. Higher therefore signals fast association. For the molecule B2, in test [2], the equilibrium dissociation constant (Kd) amounted to 130 µM, the koff worked out at 1.7 s⁻¹ and the association rate constant (kon) was 20000 M⁻¹ s⁻¹.
